Protein production data for 19 sequences are collected here from a protein production outcome set (Wang et al. 2014).

This data set in a line: label from the status in PepcDB records.
As for “MKFLVGYSNDSSGKDALKLGVALAEMTQGKLIVCHIVAKTWHNIALAKFDEDYDQFLCDEAQKALDDAKLAVPSHIEARYIARTALSISEGLKQTAKELSVDCMVISGARIAIKGQFFSGTVADELLNQLSLPVALAPKGFAKNQGFTSPLTRLSCAVSGSDQSCNLAISAGEWAEIFNVPLRFVTFAVRDRDITPTAAGFDAENMVINEWREQIEAEYAQATQHWESDVPISLEIGDGPTWKESIQSIDWQASELLIVGTTTSGIFKQVLVGKNAEKIIRYASVPRLVLPRSTD”, the protein production entry is listed as “failed”. For the sequence “MKFRRHTKAIRSLAGSLISHASAFAPALFAAIIAAIVVWVATNWRLERSLADERSVVAGELATISSRLQTNLNSNVKLLQGLAAGIAVDPAMGQNRFSKLAAQILQPDSQLRSFAAAPDMVVQWVYPETGNEKAIGLDYRKNEKQRAAAMLARNTHNIVLTGPVELVQGGTAFVVRCPVYIDDGNSQIFWGLLSGIIDIPRLYRDSGLGSTDLEIAISTTPEPNSPKQVFFGGLETFEKKPVVASVDMTYGRWSLAALPRHGWGQNNGIGTFELYASLLALCVVAPIVWVGFLTKSRQKTIEKLRLHKSKLVRARQRLEHLSLHDALTGLPNRRFVDQMISQPPRPDPQDRLILIHIDLDRFKEINDTKGHAGGDMVLQTTASRLADLTGPNDVAARIGGDEFVFASWSTDPEPKAAELARQIVDALQQTIFIDGAGYVVGASVGVAWETESARDRDLGQLLLNADLALYEAKKAGRGRAAVFTEELRSAAIHAKELADEFNQALERDELVAFFQPQFNANTLDIAGVEALARWDHPRKGLLGPNAFLDAAEKLGRSGDMDRLILQKALFELTRWDGLGMHIPRVSVNISARRLAQANLLAELSALPAAKDRLCFELLETISFDELQPALNEVIPAIKALGIEIEIDDFGTEHASIVSLLRFEPRRLKIDREIIKPIIASPSQRRLVSSIIEIGRSQNIDIVAEGVETMEHAKILKDLGCHLLQGYALARPMSSDQLIEFCRMKGTGTAKASR”, the protein production entry is given as “failed”. With “MKFSKLADQVWGEEPDDQVRSFVFMSNLDAQETANTMDVSVSVERIHADLCGNTELASELHYTPDEWDEAQGWVKINYPLIDDTASASLDVVLDATFQPLPGQPFEGEALTLIDALLHHAENVAASNPWKRTTFHTAHMHPPGSNADCDYCLVLQRRGYVKAHEEIQQTIPLPSGDWSAGEFTVVDVEGTAFPSALIPSIVELQHRAALDVPHGNLSVAPAQWDEHRLAQQSERILKTGTKLFTVLFAEGSTVAAMSSIAIPPGSNPDIAEQGLTIVHPDFRGRGLGTAVKLAGLSLLSRCHPEIQRVATSNAVDNHAMLAINRSIGATEIARTTLWEKKL” the entry was “failed”; with “MKFVHSETHRRHDPQFFIVRGQITRSTEQPERADRLLAAAQRRGHERVEARDFGEAILAEVHCPRYLDFLKNGYAQWRALPGASQEITPHVHPPREESGYPVSIIGRAGFHIADTSSPMGPHTWEAALAASHSACTAAQLVIEGAPAAYSLSRPPGHHATRDRAGGFCFLNHTAVAAQWLRHHVARVAILDVDVHHGNGTQDIFYERDDVLHVSLHADPAYFYPFFTGYAQETGRGIGAGCNLNLPLPIGTDDEAFLAALRIACRRVLDFKPDVVVVALGLDTYEGDPLNAFRITTPGFARIGQAIAGLALPTVLVQEGGYLSDELGENLATFLDGFCQHHRPTATLR”, “failed”; with “MKFVKIALIVAVVAIALFAAKQTGILEIITDIKSLQDWIASFGVWGYAVFVAAFVFACVFLLPGSAFTIVAGIVFGPIKGGILALFSATLGAVAAFIVARFLLRNTIMKKFGDNPIFKKIDDGVAANGTSFLILTRLVPVFPFSLQNYAYGLTSLNLGTYALVSLLTMAPGAFIFAYMAGDIATNGVSVMLLVKFAVAGLVLFGMSLIPKYIAKKKGINMEELAK”, “failed”. Under “MKFYKKLIECIILLLFFVVFTLFIKYYFKPFLSIVILTILCSPIYNLLSKHKVFGDRINAVLSIIVINVMIFLAIFLIGNFIAQKLNIYLQHYHNVLDINKLPIIGESNVNILLNKINVFVDKLFNADFFKKSAVYTTDGILTYFVSIMSVYFILVDKYDIVNLAEKLFTKNKVHILMKKFSDIKSLLRVETFLVLITTIQTIIGFFVLGIEDCFMLGIICGILDILPYVGTIIIFIPLIIYKMYEKNYVTIFGLIALYIFLQVSRQIMETNFMSSKLKIHPLIILISVYIGIKAFGIIGLFIAPIYVITAKEIILSS” stands “failed”.

As to “MKGFAMLGINKLGWIEKERPVAGSYDAIVRPLAVSPCTSDIHTVFEGALGDRKNMILGHEAVGEVVEVGSEVKDFKPGDRVIVPCTTPDWRSLEVQAGFQQHSNGMLAGWKFSNFKDGVFGEYFHVNDADMNLAILPKDMPLENAVMITDMMTSGFHGAELADIQMGSSVVVIGIGAVGLMGIAGAKLRGAGRIIGVGSRPICVEAAKFYGATDILNYKNGHIVDQVMKLTNGEGVDRVIMAGGGSETLSQAVSMVKPGGIISNINYHGSGDALLIPRVEWGCGMAHKTIKGGLCPGGRLMKGFAMLGINKLGWIEKERPVAGSYDAIVRPLAVSPCTSDIHTVFEGALGDRKNMILGHEAVGEVVEVGSEVKDFKPGDRVIVPCTTPDWRSLEVQAGFQQHSNGMLAGWKFSNFKDGVFGEYFHVNDADMNLAILPKDMPLENAVMITDMMTSGFHGAELADIQMGSSVVVIGIGAVGLMGIAGAKLRGAGRIIGVGSRPICVEAAKFYGATDILNYKNGHIVDQVMKLTNGEGVDRVIMAGGGSETLSQAVSMVKPGGIISNINYHGSGDALLIPRVEWGCGMAHKTIKGGLCPGGRLRAEMLRDMVVYNRVDLSKLVTHVYHGFDHIEEALLLMKDKPKDLIKAVVIL”, the protein production result is “not failed”.

“MKGIKSACALIVLTFFSALTQAATAVEMAKQAYFLIERDPLDLDQRNEASYLIQRANVLDGDEPWVAVAQSRLTLVSGYKVGQRHDRRAYEESAVSTARQQAERAVRNGPNLAMAHVQLAMVLIIQGELRTAWDHLNTADSLDEQSFYPWYLRTVIAIHHKDEKFAAEGFKEIESRASQKYQKRLLLHERMRLAKATKNLEERDRLHRKMIELDPDYAYAWGNYGSFLLGQKRYREAVHNLERAVELKPYGLAVSQLAEARRKLNQAF”: the protein production entry is recorded as “failed”. Under “MKGKLGLFAAMLVLAGCATASEQLRVYTEQYPPYNMTTNGQPFAHSESEITGLCTDVLKAVLENAKVDYSIKLRDLSYGMNRAQRHEDHGIYCVSKTDEREPFFEWVGPLSSIKWTLFAKPGSSIKLDDLEDARDYRIGGYKGDVMTGYLEDKGFDVSAITNNGLNAKRLEQDQIDLWVADGLAGPYLAADASDVTGLEAVLVFRETPMYLAINKDSDPDLIKALNTAYQAMQESGEIDTISRSYGL” stands “failed”; under “MKGKLQHIHPLGMSIILGTLFARFATSMSIPFLAIYLTTVKGVSAGMTGAIIGTSALVGVFASFIGGNLSDRFGRKTIMLWSMIVWIFVFIGFSLADHVLSFFLLNALNGLCRSFFEPTSRALLSDLTKPEYRLLVYNLRYGAINVGVAIGPIVGLQIGSAKSTIPFLVAAGVYILYTAILAFQFKKYPMEKKKVSTEKPVTMLNAMRILRKDIVFLVALVGIILSNCGFSHLTTTVSQYFANAHIFEDGVKLFSYMLALNAIVVVIIQYPVIQMCKKYTPLTSIMVGTLFVSGGLFGFGIVESMLGAAVCTIIFTIGEVLMFSMTDVFIDDIAVAHLKGTYFGAMGFSGIGAVIGPWFGGVLLDYYGYQNGFAVFSALAIFSTVAFPVLLVTKGLSKKRYDRNSNIEMHAK”, “failed”; under “MKGSLIIVGFFVLGALCGVYHLIPYDFTQSKLSFYALCALMFSVGVSVGNDPQTLRNFRSLNPRLIFLPVMTILGTLAGCAVVSLFLS”, “failed”. Under “MKGSRKGESRAKESKPREPGTRRCAKCGRLDFILKKKMGIKSGFTFWNLVFLLTLSCVKGFIYTCGGTLKGLNGTIESPGFPYGYPNGANCTWVIIAEERNRIQIVFQSFALEEEYDYLSLYDGHPHPTNFRTRLTGFHLPPPVTSTKSVFSLRLTSDFAVSAHGFKVYYEELQSSSCGNPGVPPKGVLYGTRFDVGDKIRYSCVTGYILDGHPQLTCIANSVNTASWDFPVPICRAEDACGGTMRGSSGIISSPGFPNEYHNNADCTWTIVAEPGDTISLIFTDFQMEEKYDYLEIEGSEPPTIWLSGMNIPPPIISNKNWLRLHFVTDSNHRYRGFSAPYQVKKAIDFKSRGFKLFPGKDNSNKFSLLNEGGIKTASNLCPDPGEPENGKRFGSDFR” stands “failed”; under “MKGTVGELGEFGLIRELTSRLTTTPAVRVGPGDDAAVVAAPDRRVVASTDILVEGRHFRRDWSTAYDVGRKAAAQNLADIAAMGAVPTALLLGLVVPAELPVTWPTELMDGLRDECQVAGASVVGGDVVRGDTITVSITALGDLRNQEPVTRAGAQPGDLVAVTGWLGWSAAGFAVLSRGFRSPRAFVEAHRRPEPPYHAGPAAAGLGATAMCDVSDGLIADLGHIAEASKVRIDVRSGQIDIPSQMNDIGQAVGVDPMQWVLTGGEDHAIVATFPPDVKLPARWKVIGEVLNPSALPQVTVDGAPWTSKGGWDHFGGDVES”, “failed”; under “MKHIHIIGIGGTFMGGIAAIAKEAGFKVSGCDAKMYPPMSTQLEALGIGVHEGFDAAQLEEFQADIYVIGNVARRGMDVVEAILNRGLPYISGPQWLAENVLHHHWVLGVAGTHGKTTTASMLAWVLEYAGLAPGFLIGGVPENFGVSARLPQTPRQDPNSKSPFFVIEADEYDTAFFDKRSKFVHYRPRTAVLNNLEFDHADIFADLGAIQTQFHHLVRTVPSEGLIVCNGQQQSLQDTLDKGCWTPVEKFGTGHGWQIGEVNADGSFDVLLDGKKAGHVAWDLMGGHNRMNALAVIAAARHAGVDVQTACEALGAFKNVKRRMEIKGTANGITVYDDFAHHPTAIETTIQGLRQRVGGARILAVLEPRSNTMKLGTMKSALPASLKEADQVFCYAGGADWDVAEALAPLGCRLRVGKDFDTFVAEIVKNARTGDHILVMSNGGFGGIHTKLLDALR”, “not failed”. For the sequence “MKHLPKHLRPRWRYLAVGIETWPNASFGRRAFQREVWYAAQNLLGDTGSAETDMTVLQFHDYDGTAEAIVRTRRGQTNPARAALTCLDSVDDDDVRVRVRGISGTVRACEEKYIRGPPEFTEQRHVVFENADRSATVRPPRYDVETASDGAFVGATALDFR”, the protein production result is on record as “failed”. Under “MKHYTVAINGLPQEFEGFTILHLTDLHAKKYGDQQDKLIRLINRQNFDMVAMTGDFIDKDNPDLEPTLELIQGLAAKPIFFVPGNHEWRYDFSIKSSLEEHGVKILDNKNAELARGDARLWIAGVDDPYLHRDKLEEALHGIADAQPKLLLAHAPNIFKPAAESGVELVLVGHTHGGQVRLPLIGAIVAPGQGLFPQYDYGHFTAGSTNMIVNGGLGESTLPLRFCSRPEIVLVKLVSAPLEHHHHHH” stands “failed”. For “MKIAYLGPSGSFTHNVALHAFPAADLLPFENITEVIKAYESKQVCFAIVPVENSIEGSVHETFDYLFHQAKIEAVAEIILPIKQQLMSTSADKTIETIFSHPQAIAQGKQYIRSHYPDVKIEMTASTAYAARFVAEHPEENYAAIAPYAAADEYHLSIIAKDIQEIDENYTRFWVLGDETP”, the protein production result is listed as “failed”.

As for “MKICAVVVTYNRKDLLVECLEALRRQTGPLDAIYIIDNASTDGTPHLLMEGGYIDDPDGSVKNLPDHHGRSLKIVYVRLNENTGGAGGFYKGVRRAFHDEYDWIWLMDDDVEPEEYTLEKLLKASERIPEDVSAVAPVRFFQGSLFISETKTFNFRNPLKHFTYDFITDDDLKEEYFKISAISFEGLLIKREAIERIGFPDKSLFIIADDTDYAIRLRDYGPIYMVSGARLIKKVAAEPDFNWKGFYHLRNVIYLDRKYGENILVRYLRPLRTLIIVTYQCLKYKPSGFKYLLKAFWEGYTLKRGKTVKPGEFLEHHHHHH”, the protein production result was “not failed”.

As for “MKIEAASEQHLSVYRRYFRACRDEDFEYYRGLPDDADGWLLKVVQHADGEALPEGWVPCQTWFLLSDDGEIAGAARLREGETAVIQDVIGHIGFEVLPQWRGHGYGRVLLQYVQAMAPAPACGNWVLVCDADSPASVRTIEACGGQRLEDMPQPDGRV”, the protein production result is listed as “failed”.
